Laboratory results reported in patent US20220168396A1, “MULTI-RECEPTOR AGONIST AND MEDICAL USE THEREOF” (published 2022).
Like-named read-outs stand apart in the source and are kept apart here. Numbered stars: 1 amine (or outer) side, 2 acyl side, 3 side chain; on linkers, the order of the positions; unused ones are H or OH. Square brackets hold non-standard residues; d marks the D form. Side chains are listed from the residue outwards. Ends that are not written are not given here. γGlu = O=C(O)[C@H](CCC(=O)[*:2])N[*:1]; AEEA = NCCOCCOCC(=O)O; Aib = CC(C)(N)C(=O)O

T1: human glucose-dependent insulinotropic peptide receptor (human, UniProt P48546)
T1 sequence: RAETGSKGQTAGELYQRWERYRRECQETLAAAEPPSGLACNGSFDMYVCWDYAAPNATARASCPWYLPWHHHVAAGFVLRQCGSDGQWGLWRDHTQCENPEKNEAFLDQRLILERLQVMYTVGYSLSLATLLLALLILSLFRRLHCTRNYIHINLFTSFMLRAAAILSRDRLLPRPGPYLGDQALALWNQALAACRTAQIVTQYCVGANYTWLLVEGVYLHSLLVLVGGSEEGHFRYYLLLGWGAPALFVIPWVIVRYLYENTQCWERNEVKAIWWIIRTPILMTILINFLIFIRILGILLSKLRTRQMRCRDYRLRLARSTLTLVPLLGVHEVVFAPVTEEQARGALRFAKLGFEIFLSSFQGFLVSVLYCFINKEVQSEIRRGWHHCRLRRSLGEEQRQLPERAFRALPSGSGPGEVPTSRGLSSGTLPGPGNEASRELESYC

B1: Compound No. 72 (peptide)
peptide: Y[Aib]EGTFTSDYSIYLEEIAAKEFVNWLLAGGPSSGAPPPS-NH2
modifications: N-terminus assumed
SMILES: CC[C@H](C)[C@H](NC(=O)[C@H](CCC(=O)O)NC(=O)[C@H](CCC(=O)O)NC(=O)[C@H](CC(C)C)NC(=O)[C@H](Cc1ccc(O)cc1)NC(=O)[C@@H](NC(=O)[C@H](CO)NC(=O)[C@H](Cc1ccc(O)cc1)NC(=O)[C@H](CC(=O)O)NC(=O)[C@H](CO)NC(=O)[C@@H](NC(=O)[C@H](Cc1ccccc1)NC(=O)[C@@H](NC(=O)CNC(=O)[C@H](CCC(=O)O)NC(=O)C(C)(C)NC(=O)[C@@H](N)Cc1ccc(O)cc1)[C@@H](C)O)[C@@H](C)O)[C@@H](C)CC)C(=O)N[C@@H](C)C(=O)N[C@@H](C)C(=O)N[C@@H](CCCCN)C(=O)N[C@@H](CCC(=O)O)C(=O)N[C@@H](Cc1ccccc1)C(=O)N[C@H](C(=O)N[C@@H](CC(N)=O)C(=O)N[C@@H](Cc1c[nH]c2ccccc12)C(=O)N[C@@H](CC(C)C)C(=O)N[C@@H](CC(C)C)C(=O)N[C@@H](C)C(=O)NCC(=O)NCC(=O)N1CCC[C@H]1C(=O)N[C@@H](CO)C(=O)N[C@@H](CO)C(=O)NCC(=O)N[C@@H](C)C(=O)N1CCC[C@H]1C(=O)N1CCC[C@H]1C(=O)N1CCC[C@H]1C(=O)N[C@@H](CO)C(N)=O)C(C)C
B2: Compound No. 25 (peptide)
peptide: H-Y[Aib]EGTFTSDYSIYLEKEAAKEFVNWLLAGGPSSGAPPPSK-NH2
modifications: not fully specified (residue 40); printed as H-YAibEGTFTSDYSIYLEKEAAKEFVNWLLAGGPSSGAPPPSK / (OEG-OEG-yGlu-C18-OH)-NH2
B3: Compound No. 30 (peptide)
peptide: H-Y[Aib]EGTFTSDYSIYLEKIAAKEFVNWLLAGGPSSGAPPPS-NH2
modifications: not fully specified (residue 20); printed as H-YAibEGTFTSDYSIYLEKIAAK(OEG-OEG-yGlu-C18-OH)EFVNWLLAG / GPSSGAPPPS-NH2
B4: Compound No. 28 (peptide)
peptide: H-Y[Aib]EGTFTSDYSIYLEKIAAQEFVNWLLAGGPSSGAPPPSK-NH2
modifications: not fully specified (residue 40); printed as H-YAibEGTFTSDYSIYLEKIAAQEFVNWLLAGGPSSGAPPPSK / (OEG-OEG-yGlu-C18-OH)-NH2
B5: Compound No. 29 (peptide)
peptide: H-Y[Aib]EGTFTSDYSIYLEKIAAQEFVNWLLAGKPSSGAPPPS-NH2
modifications: not fully specified (residue 30); printed as H-YAibEGTFTSDYSIYLEKIAAQEFVNWLLAGK(OEG-OEG-yGlu-C18-OH) / PSSGAPPPS-NH2
B6: Compound No. 80 (peptide)
peptide: Y[Aib]EGTFTSDYSIYLEKIAAQEFVNWLIAGGPSSGAPPPS-NH2
modifications: N-terminus assumed
SMILES: CC[C@H](C)[C@H](NC(=O)[C@H](CCCCN)NC(=O)[C@H](CCC(=O)O)NC(=O)[C@H](CC(C)C)NC(=O)[C@H](Cc1ccc(O)cc1)NC(=O)[C@@H](NC(=O)[C@H](CO)NC(=O)[C@H](Cc1ccc(O)cc1)NC(=O)[C@H](CC(=O)O)NC(=O)[C@H](CO)NC(=O)[C@@H](NC(=O)[C@H](Cc1ccccc1)NC(=O)[C@@H](NC(=O)CNC(=O)[C@H](CCC(=O)O)NC(=O)C(C)(C)NC(=O)[C@@H](N)Cc1ccc(O)cc1)[C@@H](C)O)[C@@H](C)O)[C@@H](C)CC)C(=O)N[C@@H](C)C(=O)N[C@@H](C)C(=O)N[C@@H](CCC(N)=O)C(=O)N[C@@H](CCC(=O)O)C(=O)N[C@@H](Cc1ccccc1)C(=O)N[C@H](C(=O)N[C@@H](CC(N)=O)C(=O)N[C@@H](Cc1c[nH]c2ccccc12)C(=O)N[C@@H](CC(C)C)C(=O)N[C@H](C(=O)N[C@@H](C)C(=O)NCC(=O)NCC(=O)N1CCC[C@H]1C(=O)N[C@@H](CO)C(=O)N[C@@H](CO)C(=O)NCC(=O)N[C@@H](C)C(=O)N1CCC[C@H]1C(=O)N1CCC[C@H]1C(=O)N1CCC[C@H]1C(=O)N[C@@H](CO)C(N)=O)[C@@H](C)CC)C(C)C
B7: Compound No. 27 (peptide)
peptide: H-Y[Aib]EGTFTSDYSIYLEKEAAKEFVNWLLAGGPSSGAPPPS-NH2
modifications: not fully specified (residue 20); printed as H-YAibEGTFTSDYSIYLEKEAAK(OEG-OEG-yGlu-C18-OH)EFVNWLLAG / GPSSGAPPPS-NH2
B8: Compound No. 78 (peptide)
peptide: Y[Aib]EGTFTSDYSIYLEKIAAQEFVQWLLAGGPSSGAPPPS-NH2
modifications: N-terminus assumed
SMILES: CC[C@H](C)[C@H](NC(=O)[C@H](CCCCN)NC(=O)[C@H](CCC(=O)O)NC(=O)[C@H](CC(C)C)NC(=O)[C@H](Cc1ccc(O)cc1)NC(=O)[C@@H](NC(=O)[C@H](CO)NC(=O)[C@H](Cc1ccc(O)cc1)NC(=O)[C@H](CC(=O)O)NC(=O)[C@H](CO)NC(=O)[C@@H](NC(=O)[C@H](Cc1ccccc1)NC(=O)[C@@H](NC(=O)CNC(=O)[C@H](CCC(=O)O)NC(=O)C(C)(C)NC(=O)[C@@H](N)Cc1ccc(O)cc1)[C@@H](C)O)[C@@H](C)O)[C@@H](C)CC)C(=O)N[C@@H](C)C(=O)N[C@@H](C)C(=O)N[C@@H](CCC(N)=O)C(=O)N[C@@H](CCC(=O)O)C(=O)N[C@@H](Cc1ccccc1)C(=O)N[C@H](C(=O)N[C@@H](CCC(N)=O)C(=O)N[C@@H](Cc1c[nH]c2ccccc12)C(=O)N[C@@H](CC(C)C)C(=O)N[C@@H](CC(C)C)C(=O)N[C@@H](C)C(=O)NCC(=O)NCC(=O)N1CCC[C@H]1C(=O)N[C@@H](CO)C(=O)N[C@@H](CO)C(=O)NCC(=O)N[C@@H](C)C(=O)N1CCC[C@H]1C(=O)N1CCC[C@H]1C(=O)N1CCC[C@H]1C(=O)N[C@@H](CO)C(N)=O)C(C)C

Tests used:
Test in all cases: cell-based or functional assay
[1] = target: T2, human glucagon-like peptide-1 receptor (human, UniProt P43220)
[2] = target: T1, human glucose-dependent insulinotropic …
[3] = target: T2, human glucagon-like peptide-1 receptor; remark: listed apart in the source
[4] = target: T1, human glucose-dependent insulinotropic …; remark: listed apart in the source

Binder	Activity for human GLP-1R (EC50 nM), cAMP HTRF [1] [nM]	Activity for human GIPR (EC50 nM), cAMP HTRF [2] [nM]	Activity for human GLP-1R (EC50 nM), cAMP HTRF [3] [nM]	Activity for human GIPR (EC50 nM), cAMP HTRF [4] [nM]
B1	0.017	0.03		
Y[Aib]EGTFTSDYSIYLEKIAAK([AEEA-AEEA-γGlu-C20‑OH])EFVNWLLAGGPSSGAPPPS-NH2 [Compound No. 75]			0.2	0.16
Y[Aib]EGTFTSDYSIYLDKIAAQEFVNWLLAGGPSSGAPPPSK([AEEA-AEEA-γGlu-C18‑OH])-NH2 [Compound No. 62]			0.32	0.045
B2			0.031	0.059
B3			0.058	0.021
B4			0.074	0.02
Y[Aib]EGTFTSDYSIYLEKIAAQEFVNWLLAGGPSSGAPPPSK([AEEA-AEEA-γGlu-C20‑OH])-NH2 [Compound No. 74]			0.068	0.046
B5			0.24	0.015
Y[Aib]EGTFTSDYSIYLDKIAAK([AEEA-AEEA-γGlu-C18‑OH])EFVNWLLAGGPSSGAPPPS-NH2 [Compound No. 60]			0.2	0.02
B6	0.008	0.008		
Y[Aib]EGTFTSDYSIYLEKIAAQEFVNWLIAGGPSSGAPPPSK([AEEA-AEEA-γGlu-C20‑OH])-NH2 [Compound No. 83]			0.028	0.032
B7			0.12	0.11
B8	0.008	0.012		
